Biological target: recombinant TMPRSS2 (UniProt O15393)
Experiment: enzyme inhibition kinetics (progress curve method); TMPRSS2 mixed with increasing SB3 (0-10 uM), fluorescent substrate Z-Gly-Gly-Arg-AMC, TBS pH 7.6, 25 °C, 300 s; Camostat mesylate as reference inhibitor

recombinant SerpinB3 protein, wild type (from UniProt P29508 1-390) (natural protein)
dissociation constant, fold against Camostat: 6 times lower
